The numbers were not newly measured in article PMC5807066, which cites them from elsewhere.

Several values for one entry are separate records, joined by “and”; a condition that tells them apart may be missing. Equal values may be shown once. Read-outs that look alike come from different tables or passages of the source.

Data set [1] addresses SecA:SecYEG complex (Escherichia coli) (UniProt C4ZRJ3).
Data set [2] concerns the target SecA (Escherichia coli) (UniProt P10408).
Data set [3] has as its target MBP (unfolded) (Escherichia coli) [MBP: P0AEX9].
In data set [4] the target is SecA (Escherichia coli) (UniProt P10408). The source holds these as a separate data set.
Data set [5] shares this target. The source holds these as a separate data set.

Chain of SecA (P10408 whole entry): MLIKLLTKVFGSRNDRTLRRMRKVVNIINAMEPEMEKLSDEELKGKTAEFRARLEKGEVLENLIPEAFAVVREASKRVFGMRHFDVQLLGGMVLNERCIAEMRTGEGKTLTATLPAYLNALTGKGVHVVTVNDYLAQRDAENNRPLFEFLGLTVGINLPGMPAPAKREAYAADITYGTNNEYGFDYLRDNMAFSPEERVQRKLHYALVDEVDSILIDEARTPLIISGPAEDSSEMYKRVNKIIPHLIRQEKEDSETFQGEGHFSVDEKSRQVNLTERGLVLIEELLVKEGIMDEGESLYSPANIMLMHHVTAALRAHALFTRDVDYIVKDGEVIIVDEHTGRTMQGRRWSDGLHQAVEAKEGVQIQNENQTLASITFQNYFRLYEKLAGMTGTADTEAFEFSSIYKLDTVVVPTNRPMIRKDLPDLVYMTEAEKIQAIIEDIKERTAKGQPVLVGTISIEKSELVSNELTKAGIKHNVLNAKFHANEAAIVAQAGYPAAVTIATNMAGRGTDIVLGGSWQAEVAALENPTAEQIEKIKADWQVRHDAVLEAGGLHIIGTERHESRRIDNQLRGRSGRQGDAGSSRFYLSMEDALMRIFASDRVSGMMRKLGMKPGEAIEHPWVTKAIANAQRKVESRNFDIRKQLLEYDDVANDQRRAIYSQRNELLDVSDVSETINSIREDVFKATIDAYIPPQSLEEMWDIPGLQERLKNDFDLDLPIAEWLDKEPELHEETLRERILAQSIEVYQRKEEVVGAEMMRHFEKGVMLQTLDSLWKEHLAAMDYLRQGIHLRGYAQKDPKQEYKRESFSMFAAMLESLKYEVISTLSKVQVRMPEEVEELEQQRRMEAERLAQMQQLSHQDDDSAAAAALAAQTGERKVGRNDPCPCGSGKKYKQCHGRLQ

Turning to PhoA precursor (from UniProt P00634), the Kd in data set [1] was 230 nM.
For the substance SecA (from UniProt P10408), the dissociation constant (Kd) in the data set with SecA (Escherichia coli) [2] is 100 nM and 1000 nM.
For SecB (from UniProt P0AG86), the dissociation constant Kd in data set [3] is 30 nM; with SecA (Escherichia coli) [4], 2000 nM; with SecA (Escherichia coli) [5] it was 4000 nM.

One may read the Kd as the concentration at which binding is half-saturated.
